Reference: patent US20250346668A1

Target: Human CD3e/g protein (human) (UniProt P07766)
Assay: ELISA, coated hCD3e/g

Row | EC50 [nM] | OD450 nm at 0.000853 nM [OD450 nm] | OD450 nm at 0.0043 nM [OD450 nm] | OD450 nm at 0.02 nM [OD450 nm] | OD450 nm at 0.11 nM [OD450 nm] | OD450 nm at 0.53 nM [OD450 nm] | OD450 nm at 2.67 nM [OD450 nm] | OD450 nm at 13.3 nM [OD450 nm] | OD450 nm at 66.7 nM [OD450 nm] | Binder
1 | 0.21 | 0.207 | 0.12 | 0.24 | 0.89 | 3.2 | 3.64 | 3.67 | 3.67 | mAb001 (antibody, V domains shown) VH: QVQLQQSGPELVKPGASVKISCKASGYSFTNYYMHWVKQRPGQGLEWIGWTYPGNNNIKYNEKFKGKATLTADTSSSTAYMQLSSLTSEDSAVYYCARDGYGYYFFDYWGQGIILTVSS VL: DIVMSQSPSSLAVSAGEKVTMSCKSSQSLLNNRTRKNYLAWYQQKPGQSPKLLIYWASTRESGVPDRFTGSGSGTDFTLTISSVQAEDLAIYYCKQSYTLRTFGGGTKLAIK
2 | 0.22 | 0.123 | 0.111 | 0.27 | 0.76 | 2.96 | 3.39 | 3.47 | 3.41 | mAb007 (antibody, V domains shown) VH: QVQLQQSGPELVKPGASVKISCKASGSTFTDNYIHWVKQRPGQGLEWIGWIYPGSVNIKYNEKFKDKATLTADTSSTTAYMQLSSLSSEDSAIYYCARDISRYYFDYWGQGTTLTVSS VL: DIVMSQSPSSLAVSAGERVTMNCKSSQSLLNSRTRKNYLAWYQQKPGQSPKLLIYWASTRESGVPDRFTGSGSGTDFTLTISSVQAEDLAVYYCKQSFILRTFGGGTKLAIK
